# Experimental data: the nanobody polyreactivity screen of Harvey et al. (2022)
# Assay: yeast display, Sf9 membrane polyspecificity reagent, FACS + sequencing; frameworks hold sequencing errors
# How it was run: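 A synthetic nanobody library was expressed on Saccharomyces cerevisiae BJ5465 by galactose induction for 36–48 hours. The library was stained for 1 hour at 4 °C with 10% biotinylated, detergent-solubilized Sf9 membrane reagent and enriched with streptavidin microbeads before FACS. Low and high (top ~1%) gates were set on anti-HA fluorescence for expression and streptavidin fluorescence for reagent binding, and each polyreactivity label reflects the gate of origin.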
row,Sequence,polyreactivity (PSR sort gate)
1,QVQLVESGGGLVQAGGSLRLSCAASGIIFKTYAMGWYRQAPGKERELVAGIDYSGGGTSYADSVKGRFTISRDNAKNTVYLQMNSLKPEDTAVYYCAADAYSGAYFTYLGEIYDYWGQGTQVTVSS,low polyreactivity
2,QVQLVESGGGLVQAGGSLRLSCAASGRIFKPNAMGGSRQAPGKEREFVARITRNTGSTYYADSVKGRFTISRDNAKNTVYLQMNSLKPEDTAVYYCAARFYRRNRFNYWGQGTLVTVSS,high polyreactivity
3,QVQLVESGGGLVQAGGSLRLSCAASGITFEHYAMGWYREAPGKERELVAAINRSGDNTYYADSVKGRFTISRDNAKNTVYLQMNSLKPEDTAVNYCNTVELYWRGYDYWGQGTQVTVSS,high polyreactivity
4,QVQLVESGGGLVQAGGSLRLICAASGFTFDANAMGWYRQAPGKERELVAAITRVGSTFYADSVKGRFTISRDNAKNTVYLQMNSLKPEDTAVYYCNAARDHVSGYVYWGQGTQVTVSS,low polyreactivity
5,QVQLVESGGGLFHAGGSLRLSCAASGSIFVRNVMGGYRQAPGKERELVAAISRSGVSTYYADSVKGRFTISRDNAKNTVSLQMNSLKPEDTAVSYCNAGWRRRNSTGYPWGYDYWGQGTQVTVSS,high polyreactivity
6,QVQLVESGGGLVQAGGSLRLSCAASGRTIRWNAMGWYRQAPGKERELVGAIDSVDNTYYADSVKGRFTISRYNAKNTVYLQMNSLKPEDTGVYYCARDPYWQVQMDYWGQGTQVTVSS,low polyreactivity
7,QVQLVESAGGLVQAGGSLRLSCAASGFIFRFNAMGWYRQAPGKERELVAAISWSGSSTYYADSVKGRFTISRDNAKNTVYLQMNSLKPEDTAVYYCATSAFYYKIVKGDFYYWGQGTQVTVSS,high polyreactivity
8,QDQLVESGGGLDQAGGSLRLSCAASGFTFIRYAMGWYRQAPGKERELVATITRSGGSTYYADSVKGRFTISRDHAKNTVYLQMNSLKPEDTAVYYCAKRGTLGSYYYWGQGTQVTVSS,high polyreactivity
9,QVQGVESGGGLVQAGGSLRLSCAASGLTFKENVMGWYRKAPGKERELVAAISTGASTYYADSVKGRFTISRDNANNTVYLQMNSLKPEDTAVYYCAAERWAQGYTYEYWGQGTQVTVSS,high polyreactivity
10,QVQLVESGGGLVQAGGSLRLSCAASGRTDNTNAMGWYRQAPGKERELVAAITRSGDSTYYADSVKGRFTISRDNAKNTVYLQMNSLKPEDTAVYYCAAYSRTLYPDRYYWGQGTQVTVSS,high polyreactivity
11,QVQLGESGGGLVQAGGSLRLSCAASGSIFRYYAMGLYRQAPGKERELVAAISGSGGITRYADSVKGRFTISRDNAKNTVYLLMNSLKPEDTAVYYCATRPGTRPAYDYWGQGTQVTVSS,high polyreactivity
12,QVQLVESGGGLVQAGGSLRLSCAASGIIYYANVMGWYRQAPGKERELVAGISRNGGRTYYADSVKGRFTISRDNAKNTVYLQMNSLKPEDTAVYYCAARGSYTSIFDYWGQGTQVTVSS,high polyreactivity
13,QVRLVESGGGLVQAGGSLRLSCADSGSTFTTYAIGWYRQEPGKERELVAAISSGGDTKYADSVKGRFTISRDNAKNTVYLQMNSLKPEDTAVYYWNVVSFRYYYKYGYCGQGTQVTVSS,high polyreactivity
14,QVQLVESGGGLVQAGGSLRLSCAASGRTFLSYMGWYRQAPGKERELVAISRYGTSTYYADSVKGRFTISRDNAKNTVYLQMNSLKPEDTAVFYCAAEVLRDGWWGYYYWGQGTQVTVSS,high polyreactivity
15,QVQLVESGGGLVQAGGSLRLSCAASGLTFYQYALGWSRQAPGNDREWVAAITRGGTTNYADSVKGRFTISRDNAKNTVYLQMNSLKPEDTAVYYCNKGLVFDGYDYWGQGTQVTVSS,high polyreactivity
16,QVQLVESGGGLVQAGGSLRLSCAASGFIFKIYAMGWYRQAPGKERELVATISRGGSTYYADSVKGRFTISRDNAKNTVYLQMISLNPVDTAVYYCADVFYYPPFLYNYWGQGTQVTVSS,high polyreactivity
17,QVQLVESGGGLVQAGGSLRLSCAASGLTLYGYTMGWYRQAPGKERELGATITTGGDYTYYADSVKGRFTISRDNAKNTVYLQMNRLKPVDTAVYYCAAYSYGWDYSYDYWGQVTQVTVSS,low polyreactivity
18,QVQLVESGGGLVQAGGSLRLSCAASGSISYYNAMGWYRQAPGKERELVATITDSGGSTYYADSVKGRFTISRDNAKNTVYLQMNSLKPEDTAVYYCNADYWAVNYDYWGQGSQVTVSS,low polyreactivity
19,QVQLVESGGGLVQAGGSLRLSCAASGRTFAYNAMGWYRQAPGKEREMVASITSGGSTNYADSVKGRFTISRDNAKNNVYLQINSLIPEDTAVYYCNIDGKYHLVLYDYWGQGTQVTVSS,low polyreactivity
20,QVQLVESGGGLVQAGGSLRLSCAASGSTIFLYDMGWYRQAPGKERELVAAITISGGSTYYADSVKGRFTISRDNAKNTVYLQMNSLKPEDTAVYDCNADYQWYLGGYDYWGQGTQVTVSS,high polyreactivity
21,QVQLVESGGGLVQAGGSLRLSCAASGRIFNRYTMGWYRPAPGKEREFVAAISSRGGSTYYADSVKGRFTISRDNAKNTVDLQMYSLIPEDTAVYYCNKDYYWPLYAPYDSWGQGTRVTVSS,high polyreactivity

row,Sequence,polyreactivity (PSR sort gate)
1,QVQLVESGGGLVQAGGSLRLSCAASGRNFRVNAMGWYTQAPGKERELVAAISWIGGRTYYADSVKGRFTISRDNAKNTVYLQMNSLKPEDTAVYYCAAGTRRYYYWKYDYWGQGTQVTVSS,high polyreactivity
2,QVQLVESVGGLVQAGGSLRLICAASGSTIFYNAMGWYRQAPGKERELVAAISWSGGRTYYADSVKGRFTISRDNAKNTVYLQMYRLKPEDNAVYYCNTVVSKYYKVGFGSWGQGTQVTVSS,high polyreactivity
3,QVHLVESGGGLVQAGGSLRLSCAASGGIFSYYALGWYRQAPGKERELVAAISSGGTTYYADSVKGRFTISRDNAKNTVYLQMNSLKPEDTAVYYCALLVGHNYWGQGTQVTVSS,low polyreactivity
4,QVQLLESGGGLVQAGGSLRISCAASGSTLRTNAMGWYRQAPGKERELVAAISTRGSSTYYADSVKGRFTISRDNSKNTVYLQMNSLKPEDTAVYYCAKDGVWYYSGTGMDYWGQGTQVTVSS,low polyreactivity
5,QVQLVESGGGLVQAGGSLRLSCAASGSIFGLYAMGWYRQAPGKERELVAAINWNGGDTYYADSVKGRFTISRDNAKNTVYLQMNSLKPEDTAVYYCAAELYRYGIRRRHYDYWGQGTLVTVSS,low polyreactivity
6,QVQLVESGGGLVQAGGSLRLSCAASGITFAEYAMGWYRPAPGKERELVAAINGGGGSTYYADSVKGRFTISRDYAKNTVYFQMNSLKPEDTAVYYCAADGYPGDYDYWGQGTQVTVSS,high polyreactivity
7,QVQLVESGGGLVQAGGSLRLSCAASGRTFRFYAMGWYRQAPGKERELVAAISWNGGRTYYADSVKGRFTISRDNAKNTVYLQMNSLKPEDTAFYYCAKDRGGPFYWRYPLGYWGQGTQVTVSS,high polyreactivity
8,QVQLVESGGGLVQAGRSLRLSCAASGINFAGYAKGWYRQAPGKERELVAAISRGGSTYYADSVKGRFTISRDNAKNTVYFQMNSLIPEDTAVYYCNTYYQQGYFTYTGWNYNYWGQGTQVTVST,high polyreactivity
9,QVQLVESGGGLVQAGGSLRLSCAASGSTFIFNAMGWYRQAPGKERELVAGISSGSPYYADSVKGRFTISRDNAKNTVYLQMNSLIPEDTAVYYCATKLRRWRFYAAYDYWGQGTQVTVSS,high polyreactivity
10,QVKLVESGGGLVQAGGSLRLSCAASGFTFSYYAMGWYRQAPGKERELVAAISYSGSATYYADSVKVRFTISRDNAKNTVYLQLNSLIPEDTAVYYCNARGATRGLTAYTYDSWGQGTQVTVSS,high polyreactivity
11,QVQLVDSGGGLVQAGGSLRLSCAASGLSFLVNAMGWYRQAPGKERELVAAIDRDGGITYADSVKGRFTISRDNAKNTVYLQMNSLKPDDTAVSYCAADPSSYGRFTYDYWGQGTQVNVSS,low polyreactivity
12,QVQLVESGGGLVQAGGSLRLSCAASGRTFYSNAMGWYRQAPGKERELVATITRRGGSTYYADSVKGRFTISRDNAKNTVYLQMNSLKPEDTAVYYCNAVSSKGNPYYYWGQGTQVTVSS,high polyreactivity
13,QVQLVESGGGLVQAGGSLRLSCAASGSTFPYPYTMGWYRQAPGKERELVAVNSRTGGSTFYADSVKGRFTISRDNAKNTVYFQMNSLKPEDTAVYYCAARRDGWTFWKYDYWGQGTQVTVSS,high polyreactivity
14,QVQLVESGGGLVQAGGSLRLSCAASGFTFYSYDMGWYRQAPGKERELVAVITERGSSTYYADSVKGRFTISRDNAKNTVYLQMNSLKPEDTAVYYCAAYSEYYGVYYWGQGTQVTVSS,low polyreactivity
15,QVQLVESGGGLVQAGGSLRLSCAASGGTIAPYAMGWSRQAPGKERELVATISYSGTSTNYADSVKGRFTISRDNAKNTVYLQMNSLKPEDTAVYDCAKRYHQYRWRGWLWGFDYWGQGNQVTVSS,high polyreactivity
16,QVQLVESGGGLVQAGGSLRLSCAASGRIFTKYPMGRYRQATGKERELVAAITSGGRTYYADSVKGRFTISRDNAKNTVYLQMNSLKPEDTAVYFCAARYVQVVRKFGFRGQGTQVTVSS,high polyreactivity
17,QVQLVESGGGLVQAGGSLRLSCAASGITFYGYAMGWYRQEPGKERELVATISSGGGTNYADSVKGRFTISRDNAKNTVYLQMNSLKPEDTAVYYCATDLSTVDYNYWGQGTQVTVSS,low polyreactivity
18,QVQLVESGGGLVQAGGSLRLSCAASGSIFPDYAMGRYRQAPGKERELVAGISSNSGSTYYADSVKGRFTISRDNAKNTVYLQMNSLKPEDTAVYYCAKDSFWRDTGYTDGDYWGQGTKVTVSS,low polyreactivity
19,QVQLVESGGGLVQAGGSLRLSCAASGSIFFRNAMGWYRQAPGKEREFVAVINYSGGSTRYADSVKGRFTISRDNAKNTVYLQMNSLKPEDTAVYYCATRLYISKMYYWGQGTQVTVSS,high polyreactivity
20,QVQLVESGGGLVQAGGSLRLSCAASGSIFYYYAMGWYRQAPGKEMELVAAIDSGGSTYYAHSVKGRFTISRDNAKNTVYLQMNSLKPEDTAVYYCAADTYWFVYYGYDYWGQGTQVTVSS,low polyreactivity
